Assay results from patent US20210292393A1 (published 2021).

Columns and labels:
[1] = target: SARS-CoV-2 full length spike protein, D614G mutant (SARS-CoV-2, UniProt P0DTC2 14-1273)
[2] = target: SARS-CoV-2 full length spike protein, V367F mutant (SARS-CoV-2, UniProt P0DTC2 14-1273)
[3] = target: SARS-CoV-2 full length spike protein, D614G mutant (SARS-CoV-2, UniProt P0DTC2 14-1273); remark: listed apart in the source
[4] = target: SARS-CoV-2 full length spike protein, V367F mutant (SARS-CoV-2, UniProt P0DTC2 14-1273); remark: listed apart in the source

| Binder | median fluorescence intensity, fold over isotype control [1] [fold over isotype] | median fluorescence intensity, fold over isotype control [2] [fold over isotype] | median fold over isotype [3] [fold over isotype] | median fold over isotype [4] [fold over isotype] |
| --- | --- | --- | --- | --- |
| antibody 287 (antibody, V domains shown) VH: QLQLQESGPGLVKPSETLSLTCTVSGGSISSSSYYWGWIRQPPGKGLEWIGSIFYSGSTYYNPSLKSRVTIFVDTSKNQFSLKLSSVTAADTAVYYCARFDYQVVDLTGFDYWGQGTLVTVSS VL: DIQMTQSPSSLSASVGDRVTITCRASQGIRNDLGWYQQKPGKAPKRLIYAASSLQSGVPSRFSGSGSGTEFTLTIRSLQPEDFATYYCLQYNSYPLTFGGGTKVEIK | 87.4 | 60.9 | – | – |
| antibody 298 (antibody, V domains shown) VH: EVQLVESGGGLVQPGGSLRLSCAASGFTVSSNYMSWVRQAPGKGLEWVSVIYSGGSTYYADSVKGRFTISRDNSKNTLYLQMNSLRAEDTAVYYCAREEGEWEKDYYGMDVWGQGTTVTVSS VL: not shown | 66.8 | 35.7 | – | – |
| antibody 302 (antibody, V domains shown) VH: QVQLVQSGAEVRKPGASVKVSCKVSGYTLSELSMHWVRQAPGKGLEWMGGFDPEDGERMYAQKFQGRVTMTEDTSTDTAYMELSSLRSEDTAIYYCTTDLSYLWSGKLEPDYWYFALWGRGTLVTVSS VL: not shown | 45.4 | 26.5 | – | – |
| antibody 305 (antibody, V domains shown) VH: QVQLVESGGGVVQPGRSLRLSCAASGFTFSSYAMHWVRQAPGKGLEWVAVISYDGSNKYYADSVKGRFTISRDNSKNTLYLQMNSLRAEDTAVYYCAREQTSYDYVWGTLGAYYYYGMDVWGQGTTVTVSS VL: SSELTQDPAVSVALGQTVRITCQGDSLRSYYASWYQQKPGQAPVLVIYGKNNRPSGIPDRFSGSSSGNTASLTITGAQAEDEADYYCNSRDSSGNHLVFGGGTKLTVL | 78.9 | 41 | – | – |
| antibody 308 (antibody, V domains shown) VH: QLQLQESGPGLVKPSETLSLTCSVSGGSISSSSYHWGWIRQPPGKGLEWIGSIYYSGSTYYNPSLKSRVTISVDTSKNQFSLKLRSVTAADTAVYYCAGLRVVITFGGVIPKGGAFDIWGQGTMVTVSS VL: QSALTQPASVSGSPGQSITISCTGTSSDVGGYNYVSWYQQHPGKAPKLMIYDVSNRPSGVSNRFSGSKSGNTASLTISGLQAEDEADYYCSSYTSSSTVVFGGGTKLTVL | 7.93 | 33.4 | – | – |
| antibody 310 (antibody, V domains shown) VH: EVQLVESGGGLVQPGGSLRLSCAASGFTFSSYWMSWVRQAPGKGLEWVANIKQDGSEKYYVDSVKGRFTISRDNAKNSLYLQMNSLRAEDTAVYYCARVGSSSWYFDYWGQGTLVTVSS VL: not shown | 5.35 | 28.1 | – | – |
| antibody 515 (antibody, V domains shown) VH: EVQLVESGGGLVKPGGSLRLSCAASGFTFSSYSMNWVRQAPGKGLEWVSSISSSSSYIYYADSVKGRFTISRDNAKNSLYLQMNSLRAEDTAVYYCASIAAAGTLYYYYGMDVWGQGTTVTVSS VL: not shown | – | – | 21.6 | 9.43 |
| antibody 520 (antibody, V domains shown) VH: QVQLVESGGGVVQPGRSLRLSCAASGFTFSSYAMHWGRQAPGKGLEWVAVISYDGSNKYYADSVKGRFTISRDNSKNTLYLQMNSLRAEDTAVYYCARDGGSGWLLVGNWFDPWGQGTLVTVSS VL: QSALTQPASVSGSPGQSITISCTGTSSDVGGYNYVSWYQQHPGKAPKLMIYDVSNRPSGVSNRFSGSKSGNTASLTISGLQAEDEADYYCSSYTSSITLYVFGTGTKVTVL | – | – | 7.6 | 31.2 |
| antibody 525 (antibody, V domains shown) VH: QVQLVESGGGVVQPGRSLRLSCAASGFTFSSYAMHWVRQAPGKGLEWVTVISYNGRNKYYADSVKGRFTISRDNSKNTLYLQMNSLRAEDTAVYWCAREGLGAIVVGLDYWGQGTLVIVSS VL: not shown | – | – | 7.12 | 32.4 |
